Literature values in publication PMC5000552.

Target: BCL6 (Homo sapiens) (UniProt P41182)

Sequence of BCOR (Q6W2J9 whole entry): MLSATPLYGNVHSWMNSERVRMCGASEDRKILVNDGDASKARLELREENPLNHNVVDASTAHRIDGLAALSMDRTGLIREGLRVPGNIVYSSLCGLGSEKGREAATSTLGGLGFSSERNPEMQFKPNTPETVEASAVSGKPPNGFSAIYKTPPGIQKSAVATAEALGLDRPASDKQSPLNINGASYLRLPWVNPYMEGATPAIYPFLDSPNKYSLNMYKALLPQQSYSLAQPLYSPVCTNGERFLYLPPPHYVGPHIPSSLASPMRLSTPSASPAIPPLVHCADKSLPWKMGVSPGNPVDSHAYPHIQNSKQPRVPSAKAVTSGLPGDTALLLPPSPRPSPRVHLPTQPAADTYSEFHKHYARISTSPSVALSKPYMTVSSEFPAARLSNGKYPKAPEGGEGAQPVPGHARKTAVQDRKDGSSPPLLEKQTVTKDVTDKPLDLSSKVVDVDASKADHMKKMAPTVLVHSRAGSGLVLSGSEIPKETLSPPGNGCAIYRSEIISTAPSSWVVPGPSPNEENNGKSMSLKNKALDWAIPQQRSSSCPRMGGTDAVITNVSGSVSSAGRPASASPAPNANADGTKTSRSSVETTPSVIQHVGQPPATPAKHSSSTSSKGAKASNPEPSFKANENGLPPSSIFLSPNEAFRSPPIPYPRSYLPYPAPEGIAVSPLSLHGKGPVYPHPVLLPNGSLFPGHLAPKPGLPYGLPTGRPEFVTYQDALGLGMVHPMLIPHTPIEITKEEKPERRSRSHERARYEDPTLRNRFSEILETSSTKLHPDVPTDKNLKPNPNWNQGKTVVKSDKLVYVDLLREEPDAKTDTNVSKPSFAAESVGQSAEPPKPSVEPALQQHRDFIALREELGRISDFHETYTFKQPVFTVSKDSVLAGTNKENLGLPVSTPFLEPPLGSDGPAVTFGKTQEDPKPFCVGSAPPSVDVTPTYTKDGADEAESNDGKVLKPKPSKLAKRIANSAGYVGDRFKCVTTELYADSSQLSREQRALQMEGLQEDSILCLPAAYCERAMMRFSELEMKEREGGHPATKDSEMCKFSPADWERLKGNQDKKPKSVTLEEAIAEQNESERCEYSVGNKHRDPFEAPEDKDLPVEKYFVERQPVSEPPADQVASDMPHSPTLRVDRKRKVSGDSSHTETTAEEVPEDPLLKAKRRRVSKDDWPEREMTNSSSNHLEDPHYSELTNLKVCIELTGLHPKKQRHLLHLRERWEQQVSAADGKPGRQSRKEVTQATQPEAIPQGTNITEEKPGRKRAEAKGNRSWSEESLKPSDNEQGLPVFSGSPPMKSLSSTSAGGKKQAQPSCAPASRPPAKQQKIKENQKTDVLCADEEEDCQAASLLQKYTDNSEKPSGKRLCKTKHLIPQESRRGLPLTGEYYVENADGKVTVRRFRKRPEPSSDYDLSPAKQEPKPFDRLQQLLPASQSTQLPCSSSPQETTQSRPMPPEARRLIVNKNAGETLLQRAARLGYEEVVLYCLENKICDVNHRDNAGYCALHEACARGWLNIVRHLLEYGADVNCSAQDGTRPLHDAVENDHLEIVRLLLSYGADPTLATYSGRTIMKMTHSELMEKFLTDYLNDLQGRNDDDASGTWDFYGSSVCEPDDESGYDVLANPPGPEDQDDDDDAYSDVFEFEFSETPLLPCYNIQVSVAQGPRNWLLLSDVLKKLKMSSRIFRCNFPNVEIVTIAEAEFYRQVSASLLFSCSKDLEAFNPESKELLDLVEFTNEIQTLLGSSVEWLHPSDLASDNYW

Kd: 20 µM
Substance: BCOR (from UniProt Q6W2J9)
